Measurements: publication PMC11033526, “Direct binding of calmodulin to the cytosolic C-terminal regions of sweet/umami taste receptors” (Journal of Biochemistry, 2023)

Tests used:
[1] = target: biotin-mT1r2 CT peptide (cytosolic C-terminal region of mouse taste receptor type 1 subunit 2) (mouse) (UniProt Q925I4); assay: SPR; Biacore 2000; biotinylated T1r peptides on a CAP chip (Biotin CAPture Kit); mCaM injected, 2-fold dilutions from 50 μM, -Ca2+ (1 mM EGTA), 25°C, 30 μl/min
[2] = target: biotin-mT1r1 CT peptide (cytosolic C-terminal region of mouse taste receptor type 1 subunit 1) (mouse) (UniProt Q99PG6); assay: as above
Chain of biotin-mT1r1 CT peptide (cytosolic C-terminal region of mouse taste receptor type 1 subunit 1) (mouse) (Q99PG6 other isoform, or with tags, fused parts or gaps): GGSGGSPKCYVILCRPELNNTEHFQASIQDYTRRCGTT

[3] = target: biotin-mT1r3 CT peptide (cytosolic C-terminal region of mouse taste receptor type 1 subunit 3) (mouse) (UniProt Q925D8); assay: as above
Chain of biotin-mT1r3 CT peptide (cytosolic C-terminal region of mouse taste receptor type 1 subunit 3) (mouse) (Q925D8 other isoform, or with tags, fused parts or gaps): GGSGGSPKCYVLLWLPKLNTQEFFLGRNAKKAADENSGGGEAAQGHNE

[4] = target: FLAG-ySUMO-mT1r2 CTΔ (mouse); assay: SPR; Biacore 2000; ySUMO-fusion proteins amine-coupled on a CM5 chip, ySUMO on the reference cell; mCaM injected, 2-fold dilutions from 40 μM, +Ca2+ (1 mM CaCl2), 25°C, 30 μl/min; KD from equilibrium responses, 1:1 model
[5] = target: FLAG-ySUMO-mT1r3 CTΔ (mouse); assay: as above
[6] = target: biotin-mT1r2 CT peptide (cytosolic C-terminal region of mouse taste receptor type 1 subunit 2) (mouse) (UniProt Q925I4); assay: SPR; Biacore 2000; biotinylated T1r peptides on a CAP chip (Biotin CAPture Kit); mCaM injected, 2-fold dilutions from 50 μM, +Ca2+ (1 mM CaCl2), 25°C, 30 μl/min; KD from equilibrium responses, 1:1 model
[7] = target: biotin-mT1r1 CT peptide (cytosolic C-terminal region of mouse taste receptor type 1 subunit 1) (mouse) (UniProt Q99PG6); assay: as above
[8] = target: biotin-mT1r3 CT peptide (cytosolic C-terminal region of mouse taste receptor type 1 subunit 3) (mouse) (UniProt Q925D8); assay: as above
[9] = target: FLAG-ySUMO-mT1r2 CTΔ (mouse); assay: SPR; Biacore 2000; ySUMO-fusion proteins amine-coupled on a CM5 chip, ySUMO on the reference cell; mCaM injected, 2-fold dilutions from 40 μM, -Ca2+ (1 mM EGTA), 25°C, 30 μl/min
[10] = target: FLAG-ySUMO-mT1r3 CTΔ (mouse); assay: as above

Chain of biotin-mT1r2 CT peptide (cytosolic C-terminal region of mouse taste receptor type 1 subunit 2) (mouse) (Q925I4 other isoform, or with tags, fused parts or gaps): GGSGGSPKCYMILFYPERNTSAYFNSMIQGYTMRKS

- response at 50 μM mCaM injection [1]: 9.4 RU
- response at 50 μM mCaM injection [2]: 5 RU
- response at 50 μM mCaM injection [3]: 16 RU
- Kd [4]: 41 µM
- Req value at 40 μM mCaM injection [4]: 114 RU
- Kd [5]: 80 µM
- Req value at 40 μM mCaM injection [5]: 101 RU
- Req value at 50 μM mCaM injection [6]: 11 RU
- Req value at 25 μM mCaM injection [7]: 10.6 RU
- Req value at 50 μM mCaM injection [8]: 36.7 RU
- response at 40 μM mCaM injection [9]: 9.2 RU
- response at 40 μM mCaM injection [10]: 13 RU
Substance: mouse calmodulin (from UniProt P0DP26 1-149) (natural protein)
